Source: patent publication US20130029913A1, “ARTIFICIAL PLATELETS” (priority 2005, published 2013)
Each block holds one molecule with its values, some of them ahead of it. Primed or numbered codes have the meaning given here. No end group written: not given here. MAL″ = maleimide moiety on the C-terminal lysine; MAL = maleimide moiety

What was measured:
Fibrinogen [1] = biological target: T1, Fibrinogen (Homo sapiens, UniProt P02679); assay: Binding of fibrinogen to peptide-linked microspheres in absence and presence of thrombin (flow cytometry)
T1 sequence (P02671 20-644 isoform P02671-2 partner limits assumed, one chain of several): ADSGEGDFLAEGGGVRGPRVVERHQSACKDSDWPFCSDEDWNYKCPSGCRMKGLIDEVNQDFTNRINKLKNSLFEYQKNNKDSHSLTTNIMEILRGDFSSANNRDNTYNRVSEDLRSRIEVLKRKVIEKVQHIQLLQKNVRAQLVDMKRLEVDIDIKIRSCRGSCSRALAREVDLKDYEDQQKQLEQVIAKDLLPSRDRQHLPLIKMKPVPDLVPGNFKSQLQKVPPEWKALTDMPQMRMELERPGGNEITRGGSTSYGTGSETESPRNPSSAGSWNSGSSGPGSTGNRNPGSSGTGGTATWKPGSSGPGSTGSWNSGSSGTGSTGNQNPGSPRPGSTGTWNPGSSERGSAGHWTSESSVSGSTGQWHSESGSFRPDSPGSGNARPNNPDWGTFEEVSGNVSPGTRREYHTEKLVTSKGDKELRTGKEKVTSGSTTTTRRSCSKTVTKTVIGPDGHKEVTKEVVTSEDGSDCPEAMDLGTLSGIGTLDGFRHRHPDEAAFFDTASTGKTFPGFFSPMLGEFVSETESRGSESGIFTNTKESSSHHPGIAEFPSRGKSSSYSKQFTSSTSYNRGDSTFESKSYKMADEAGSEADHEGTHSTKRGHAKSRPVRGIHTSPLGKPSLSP
Method: Peptide A linked microspheres, and Peptide B linked microspheres were prepared as described in Example 2, and were mixed for 30 minutes with buffer or thrombin as shown in the table below:
The microspheres were then recovered by centrifuging at 1800 g for 10 minutes. The microspheres were resuspended in 100 μl Tris to give a final concentration of 5 mg/ml. 10 μl of Hirudin 100 U/ml was added to inhibit residual thrombin.
180 μl Fibrinogen at a concentration 0.1 mg/ml was added to 20 μl of Peptide A or Peptide B linked microspheres and mixed for 1 hr.
Fibrinogen binding was measured as follows. 5 μl microspheres were added to 50 μl HEPES buffer pH […] FITC labelled antibody to human fibrinogen was added and mixed for 20 minutes. The reaction was stopped with addition of 0.2% Formyl saline. Bound fluorescence was measured using a Beckman Coulter XL MCL Flow Cytometer.

Fibrinogen [2] = biological target: T1, Fibrinogen; assay: Fibrinogen binding to microparticles after incubation with or without thrombin (flow cytometry); design: purchased Scottish National Blood Transfusion Service (SNBTS)
Method: (§1) Microparticles were mixed with fibrinogen solution after exposure to thrombin to confirm that fibrinogen-binding sequence is exposed by thrombin.
(§2) Microparticles at 0.7, 5 or 10 mg/ml were incubated with 0-0.64 U/mL thrombin at 37° C. after 2 min the thrombin was inhibited by the addition of hirudin (Sigma) at a final concentration of 10 U/mL. Microparticles were centrifuged at 9300 g for 5 min and resuspended in HBS to give 14 mg/mL. The microparticles were diluted 10-fold in 0.1 mg/mL human fibrinogen (Scottish National Blood Transfusion Service: SNBTS) and incubated at room temperature for 1 h. The amount of fibrinogen bound was determined by flow cytometry with a polyclonal antibody rabbit-anti-human fibrinogen-FITC (Dako Cytomation).

Fibrinogen [3] = biological target: T1, Fibrinogen; assay: Clot formation in fibrinogen in response to thrombin (turbidity, PAP-4); type: biochemical; design: purchased SNBTS
Method: Clot formation was determined by a […] in turbidity using the Platelet Aggregation Profiler® PAP-4 (BioData Corporation, PA) as follows; Peptide C linked microparticles were prepared as described in Example 5 at a stock concentration of 2.5 mg/ml in Hepes buffered saline (HBS). The baseline optical density was set with fibrinogen (SNBTS) solution at 3 mg/ml in HBS. Fibrinogen solutions (205 μl) were pre-warmed to 37° C. for 1 min before the addition of microparticles (25 μl), with the stir bar rate set at 900 rpm. After two min 20 μL of human thrombin (Sigma) stock solution was added to give a final concentration of 0.032 U/ml.

plasma [4] = assay: Clot formation in plasma in response to thrombin (turbidimetric, PAP-4); type: biochemical
Method: Microparticle clot formation in plasma was determined turbidimetrically using the Platelet Aggregation Profiler® PAP-4 (BioData Corporation, PA) as described above.
(§3) Peptide C modified microparticles were prepared as described in Example 5 at a stock concentration of 2.5 mg/ml in HBS. The baseline optical density was set with plasma, which had been prepared from citrated blood. Plasma samples (205 μl) were pre-warmed to 37° C. for 1 min before the addition of microparticles (25 μl), with the stir bar rate set at 900 rpm. After two minutes 20 uL of human thrombin (Sigma) stock solution was added to the reaction to give a final thrombin concentration of 0.25 U/ml.

Thrombocytopenic blood = assay: Platelet aggregation in thrombocytopenic blood activated by ADP (impedance aggregometer); type: cell-based; settings: microparticles pre-exposed to thrombin, 6 min
Method: Platelet aggregation in the presence of peptide C modified microparticles was measured using a Multiplatelet impedance aggregometer (Multiplate® Dynabyte medical, Munich).
Peptide C modified microparticles were prepared as described in Example 5 at a stock concentration of 2.5 mg/ml in HBS. The microparticles (0.75 mg) were pre-incubated for 1 h with 1 U/ml human thrombin (Sigma) in HBS (total volume 0.3 ml). To inhibit thrombin activity hirudin (Sigma) was added at a final concentration of 5 U/ml. The reaction was centrifuged at 9300 g for 5 min and the supernatant was discarded. The microparticles were resuspended in HBS to a concentration of 2.5 mg/ml.
Thrombocytopenic blood was prepared from citrated blood as follows:
Platelets were removed by centrifuging whole blood at 163 g for 20 min and discarding the platelet rich upper layer. The upper platelet rich layer was replaced by plasma that was isolated as the supernatant after centrifuging whole blood at 1800 g for 30 min.
To monitor electrical impedance; to each electrode well 0.3 ml of blood was incubated at 37° C. with microparticles (0.15 mg) and saline to give a total volume of 0.6 ml. Aggregation was recorded immediately after the addition of 30 μl of activator adenosine diphosphate solution (0.1 mM). Aggregation was recorded for 6 min; results in FIG. 9 are expressed in arbitrary units of final aggregation.

plasma [5] = assay: Clot formation in plasma after microparticles pre-incubated with thrombin (turbidimetric, PAP-4); type: biochemical
Method: Clot formation as monitored in plasma with peptide C modified microparticles that had been pre-exposed to thrombin in a buffer. Microparticle clot formation in plasma was determined turbidimetrically using the Platelet Aggregation Profiler® PAP-4 (BioData Corporation, PA) as described above.
as §3, with “HBS. Peptide C modified microparticles were pre-incubated with 0.6 U/ml thrombin for 1 h and then hirudin (10 U/ml) was added to inhibit thrombin activity. The reactions were centrifuged at 9300 g for 5 min then resuspended in HBS at 2.5 mg/ml.” for “HBS.”, “of” for “of human”, “thrombin” for “thrombin (Sigma)”

[6] = biological target: T2, human fibrinogen (Scottish National Blood Transfusion Service: SNBTS) (human, UniProt P02671 20-629; P02675 31-491; P02679 27-437, limits assumed); assay: flow cytometry with rabbit anti-human fibrinogen-FITC on microparticles
T2 sequence (looked up) 1: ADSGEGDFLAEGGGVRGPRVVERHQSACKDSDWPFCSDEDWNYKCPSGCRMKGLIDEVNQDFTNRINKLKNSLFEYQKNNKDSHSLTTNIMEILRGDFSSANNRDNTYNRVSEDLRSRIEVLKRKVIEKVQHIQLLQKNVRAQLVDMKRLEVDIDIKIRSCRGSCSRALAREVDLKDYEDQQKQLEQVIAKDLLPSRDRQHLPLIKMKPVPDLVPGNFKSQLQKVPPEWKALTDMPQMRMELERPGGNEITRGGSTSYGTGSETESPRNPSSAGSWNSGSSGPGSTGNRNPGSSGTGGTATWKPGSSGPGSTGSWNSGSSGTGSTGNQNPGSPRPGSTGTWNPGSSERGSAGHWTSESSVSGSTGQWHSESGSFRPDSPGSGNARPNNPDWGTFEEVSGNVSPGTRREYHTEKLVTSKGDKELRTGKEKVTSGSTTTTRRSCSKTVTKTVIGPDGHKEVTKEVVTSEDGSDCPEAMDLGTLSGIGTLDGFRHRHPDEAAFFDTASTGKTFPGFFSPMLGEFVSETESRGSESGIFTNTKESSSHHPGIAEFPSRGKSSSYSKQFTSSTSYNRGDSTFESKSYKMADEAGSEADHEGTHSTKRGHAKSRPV
T2 sequence (looked up) 2: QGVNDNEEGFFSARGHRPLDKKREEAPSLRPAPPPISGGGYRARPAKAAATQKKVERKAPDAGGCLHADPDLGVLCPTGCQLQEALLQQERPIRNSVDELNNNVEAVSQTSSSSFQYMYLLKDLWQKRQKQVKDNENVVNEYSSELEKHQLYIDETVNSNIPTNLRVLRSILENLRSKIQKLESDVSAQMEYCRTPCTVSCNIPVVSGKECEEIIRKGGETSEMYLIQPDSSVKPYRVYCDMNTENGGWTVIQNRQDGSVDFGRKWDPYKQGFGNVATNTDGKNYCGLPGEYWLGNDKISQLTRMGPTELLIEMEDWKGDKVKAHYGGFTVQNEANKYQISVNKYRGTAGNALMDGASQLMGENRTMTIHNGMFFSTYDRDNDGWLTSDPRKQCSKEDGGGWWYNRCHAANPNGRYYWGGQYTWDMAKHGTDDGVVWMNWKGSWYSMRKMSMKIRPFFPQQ
T2 sequence (looked up) 3: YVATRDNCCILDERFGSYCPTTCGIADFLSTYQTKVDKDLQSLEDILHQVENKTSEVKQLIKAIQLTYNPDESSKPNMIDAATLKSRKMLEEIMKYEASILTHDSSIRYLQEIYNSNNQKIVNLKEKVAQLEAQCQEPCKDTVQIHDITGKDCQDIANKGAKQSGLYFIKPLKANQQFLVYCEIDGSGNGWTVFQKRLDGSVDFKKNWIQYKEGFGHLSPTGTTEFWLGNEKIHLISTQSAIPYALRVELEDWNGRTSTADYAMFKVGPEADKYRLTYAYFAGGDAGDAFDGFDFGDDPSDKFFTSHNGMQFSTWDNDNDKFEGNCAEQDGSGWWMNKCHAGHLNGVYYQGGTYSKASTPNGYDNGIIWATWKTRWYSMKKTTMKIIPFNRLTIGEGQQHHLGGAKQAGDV
Method: as §1, §2

fibrinogen binding (in words) (Fibrinogen [1]; absence of thrombin): bound fibrinogen
fibrinogen binding (in words) (Fibrinogen [1]; presence of thrombin): bound fibrinogen
Molecule: H2N-GPRPG^6C (H-GPRPGGGGGGC; also: cross-linked to human albumin microspheres) [Peptide B, reference compound]

microspheres that bound fibrinogen (Fibrinogen [1]; first incubated with thrombin (0.16 U/ml, 30 minutes), then mixed with fibrinogen): 86%
microspheres that bound fibrinogen (Fibrinogen [1]; not previously incubated with thrombin, fibrinogen 0.1 mg/ml, 1 hr): 6%
Molecule: H2N-LVPRGPRPG^6C (H-LVPRGPRPGGGGGGC; also: cross-linked to human albumin microspheres) [Peptide A]

amount of fibrinogen bound to microparticles (Fibrinogen [2]; increasing thrombin concentration (0-0.64 U/mL), all three microparticle concentrations): increased
fibrinogen binding (in words) (Fibrinogen [2]; without thrombin, microparticles 0.7, 5 or 10 mg/ml): do not bind fibrinogen
Molecule: H2N-LVPRGPRPG^5K-MAL (H-LVPRGPRPGGGGGK-{MAL}; also: MAL maleimide linked to human albumin microparticles) [peptide C]
clot formation in fibrinogen solution (Fibrinogen [3]; absence of thrombin, fibrinogen 3 mg/ml): neither blank nor microparticles modified with peptide C formed a clot
turbidity decrease (clot formation) vs control unmodified microparticles (Fibrinogen [3]; thrombin 0.032 U/ml added at 2 min): decreased more rapidly
clot formation in plasma vs unmodified control blank microparticles (plasma [4]; thrombin 0.25 U/ml added at the 2 min time point): accelerated clot formation
clot formation in plasma (plasma [4]; without the addition of thrombin): did not form a clot
electrical impedance (final aggregation) vs TCB without microparticles or blank microparticles (Thrombocytopenic blood): greater electrical impedance
clot formation in plasma (plasma [5]; exposed to thrombin both before (0.6 U/ml, 1 h) and during (0.25 U/ml) incubation with plasma): clot formation occurs
clot formation in plasma (plasma [5]; without thrombin exposure, over the 20 min period): did not result in clot formation

B1: Peptide C (H2N-LVPRGPRPG5K-MAL), fibrinogen binding precursor peptide linked to human albumin microparticles, not exposed to thrombin (peptide)
peptide: H-LVPRGPRPGGGGGK(MAL″)
modifications: also: thioether-linked via maleimide to albumin microparticle sulphydryl
notes: Synthetic peptide immobilised on microparticles of human serum albumin; tested as the intact precursor; also called peptide C modified microparticles; microparticles modified with peptide C
binding result [6]: no binding (tested: 0.1 mg/mL human fibrinogen)
